From paper PMC5076532, “The Vesicle Priming Factor CAPS Functions as a Homodimer via C2 Domain Interactions to Promote Regulated Vesicle Exocytosis*” (The Journal of Biological Chemistry, 2016)

Assays:
[1] = target: the molecule itself; experiment: native gel or EMSA; BN-PAGE of 5 μg of purified protein incubated with 1.5 μg of PI(4,5)P2 (micelles) for 0-30 min
[2] = target: the molecule itself; experiment: native gel or EMSA; blue native (BN-PAGE, 5-14% or 6-14%) or clear native (CN-PAGE, 6%, 4 °C) gels of purified soluble protein without lipid; Coomassie or Western blot (CAPS or Myc antibody); 20 mM HEPES, 10 mM NaCl, 10 mM imidazole, 5% glycerol, pH 7.4 for CN-PAGE
[3] = target: the molecule itself; experiment: cell-based or functional assay
[4] = target: the molecule itself; experiment: atomic force microscopy (volume analysis); 100 pM CAPS dried onto freshly cleaved mica

B1: CAPS(ΔC2)-Myc-His (natural protein)
chain: not shown
notes: CAPS, Rattus norvegicus, NP_037351.1; amino acids 400-516 deleted from the CAPS ORF, residue 399 directly fused to residue 517; also called ΔC2-CAPS; source: HEK293-FT, transfected, purified as Myc-His fusion protein
binding result [1]: binds

B2: CAPS(G476E)-Myc-His (natural protein)
chain: not shown
notes: CAPS, Rattus norvegicus, NP_037351.1, point mutant made on pcDNA3.1 CAPS-Myc-His; also called counterpart of unc-31(e714); source: HEK293-FT, transfected, purified as Myc-His fusion protein
binding result [2]: binds

B3: CAPS-Myc-His (recombinant wild-type rat CAPS) (natural protein)
chain: not shown
notes: the CAPS ORF in pcDNA3.1 CAPS-Myc-His; the words 'full length' are used only for the antigen of the antibody; also called CAPS-1; CADPS; source: HEK293-FT, transfected (calcium phosphate), purified (nickel-nitrilotriacetic acid column)
Ca2+-dependent norepinephrine secretion from permeable PC12 cells: activity of bound CAPS-Myc-His (exclusively dimer) after wash, relative to added CAPS-Myc-His [3]: ~50%
stoichiometry N [4]: 2
